Results as given in US11572572B2, “A138T mutation-containing plant EPSPS mutant, and encoding gene and application thereof” (GEVOTO LLC, priority 2017, dated 2023).
Where a chain is given by its changes, count along the chain named.

B1: R0: wild-type Oryza sativa EPSPS (SEQ ID NO: 5), encoding gene SEQ ID NO: 14; control group of Example 5 (protein, listed as Oryza sativa)
chain: MASNAAAAAAKAEEIVLQPIREISGAVQLPGSKSLSNRILLLSALSEGTTVVDNLLNSEDVHYMLEALKALGLSVEADKVAKRAVVVGCGGKFPVEKDAKEEVQLFLGNAGTAMRPLTAAVTAAGGNATYVLDGVPRMRERPIGDLVVGLKQLGADVDCFLGTECPPVRVKGIGGLPGGKVKLSGSISSQYLSALLMAAPLALGDVEIEIIDKLISIPYVEMTLRLMERFGVKAEHSDSWDRFYIKGGQKYKSPGNAYVEGDASSASYFLAGAAITGGTVTVQGCGTTSLQGDVKFAEVLEMMGAKVTWTDTSVTVTGPPREPYGKKHLKAVDVNMNKMPDVAMTLAVVALFADGPTAIRDVASWRVKETERMVAIRTELTKLGASVEEGPDYCIITPPEKLNITAIDTYDDHRMAMAFSLAACADVPVTIRDPGCTRKTFPNYFDVLSTFVRN
B2: R1: Oryza sativa EPSPS mutant I with A155(138)T mutation (SEQ ID NO: 6), encoding gene SEQ ID NO: 15 (protein)
chain: B1 chain with A155T
modifications: Oryza sativa EPSPS mutant with mutation A155(138)T

Key:
[1] = system: transgenic rice seedlings; test: Glyphosate resistance of EPSPS mutants in transgenic rice sprayed with glyphosate (Example 8); format: in vivo, rice (Nipponbare); conditions: for glyphosate resistance of transformed rice seedlings (in words): after spraying with 1× glyphosate
From the text: The glyphosate resistance of the EPSPS mutants of the above examples in transgenic rice was detected by the following method.
Plasmids of monoclonal resistant strain comprising pADV5-EPSPS of Examples 1-4 (containing the EPSPS mutant genes) were extracted in accordance with a conventional method. They were subjected to double enzymatic digestion with Pacl and BstEII to recover small fragments, and then the small fragments were ligated, using T4 DNA ligase, to a pGVP1 vector subjected to double enzymatic digestion in the same manner, to obtain a pGVP1-EPSPS vector having a structure as shown in FIG. 8.
The pGVP1-EPSPS vector was transformed into EHA105 (Agrobacterium tumefaciens) competent cells, and single clones were picked out for colony PCR detection to obtain positive strains. Then, the positive strains were inoculated into and propagated in 1 mL of a YEP medium containing 50 μg·mL^−1 kanamycin and 50 μg·mL^−1 rifampicin, and stored at −80° C. or used in subsequent experiments.
400 ul of a strain containing the target gene vector stored at −80° C. was added to a culture dish with a solid medium containing YEP+50 μg/mL rifampicin+50 μg/mL kanamycin and cultured in the dark at 28° C. for 24 hours, and then the bacterium was added to an infection medium and adjusted to OD=0.2 as an infection solution.
Disinfection and Pre-culture: seeds of mature rice (Nipponbare) were manually dehulled. Full seeds with no bacterial plaques were selected and disinfected in accordance with the following steps: the seeds were placed in a 50 ml sterile centrifuge tube and disinfected with the added 70% ethanol in water for 30 seconds, ethanol solution was poured out, and the seeds were washed once with sterile water; 10 to 20 ml of 2.6% sodium hypochlorite solution was added to soak and disinfect the seeds for 20 minutes. The sodium hypochlorite solution was poured out, and the seeds were soaked and washed with sterile water for 6 or 7 times, for 3 minutes each time.
Induction and Subculture: the seeds were placed on and blotted with sterile filter paper, and the mature embryos were placed in an induction medium, with 12 embryos per dish. After the operation was completed, the culture dishes were sealed with parafilm and underwent culturing in the dark at 30° C. for 21 to 28 days. Callus tissue was transferred to a fresh medium and continued to be cultured for about 7 to 14 days. Spherical callus tissue with a dimension of 1 to 2 mm was taken as an infection receptor.
The callus tissue was placed into a centrifuge tube or culture cup, infected in the prepared Agrobacterium suspension added thereto for 10 minutes, and shaken several times during the period; the bacterial solution was poured out, the callus tissue was taken out and placed on sterile filter paper for absorbing the bacterial solution from its surface (for about 30 minutes); the callus tissue was placed on sterile filter paper in culture dishes and cultured in the dark at 25° C. for 2 or 3 days.
Recovery Culture: the co-cultured callus tissue was inoculated on a recovery medium and cultured in the dark at 30° C. for 5 to 7 days.
Primary Screening: the callus was transferred to screening medium 1 (51) and cultured in the dark at 30° C. for 14 days.
Secondary Screening: the callus was then transferred to screening medium 2 (S2) and cultured in the dark at 30° C. for 14 days.
Primary Differentiation: the screened resistant callus tissue was transferred to a differentiation medium and cultured for about 21 days at 30° C. under exposure to light for 19 hours.
Secondary Differentiation: new young shoots were selected and moved to a fresh differentiation medium and continued to be cultured for about 21 days.
When the new seedlings grew to about 2 cm, they were moved to a rooting medium and cultured for 3 to 4 weeks at 30° C. under exposure to light (for 16/8 h). […]

[2] = system: double-knockout Escherichia coli strain (EDCE); test: Growth of double-knockout E. coli (EDCE) transformed with Oryza sativa EPSPS genes in glyphosate media (Example 5); format: cell-based; conditions: Example 5, FIG. 1
From the text: An Escherichia coli strain transformed with the Oryza sativa EPSPS mutant I-encoding gene according to Example 1 was used as Experimental Group 1 (having only the A155(138)T mutation).
An Escherichia coli strain transformed with the Oryza sativa EPSPS mutant II-encoding gene according to Example 2 was used as Experimental Group 3 (having the G111(96)A mutation and A155(138)T mutation).
An Escherichia coli strain transformed with a wild-type Oryza sativa EPSPS-encoding gene (SEQ ID NO: 14, encoding wild-type Oryza sativa EPSPS set forth in SEQ ID NO: 5) was used as a control group.
The glyphosate resistance of the Oryza sativa EPSPS mutant I-encoding gene and the encoded Oryza sativa EPSPS mutant I in Escherichia coli, and the glyphosate resistance of the Oryza sativa EPSPS mutant II-encoding gene and the encoded Oryza sativa EPSPS mutant II in Escherichia coli were verified by detecting the growth statuses of the transformed Escherichia coli in media containing different concentrations of glyphosate (0 mM, 1 mM, 2 mM, 20 mM) (media obtained by using M9 as a basal medium and then adding certain concentrations of antibiotics Spec (Spectinomycin), Gen (Gentamycin), and Amp (Ampicillin) and different concentrations of glyphosate).
Here, the Escherichia coli strain used was an double-knockout Escherichia coli strain (Escherichia coli strain DH5a from which an EPSPS gene and a C-P Lyase gene were knocked out, named EDCE, which may be prepared by a method with reference to Chinese Patent Application No. 2016103256926).
The detection was carried out by a method well known in the art, which was briefly described below. Gene encoding Oryza sativa EPSPS mutants was synthesized by a chemical synthesis method, wherein enzymatic digestion sites (Pacl and Sbfl) were introduced at both ends of the gene. The gene were enzymatically cleaved and then ligated in the presence of ligase to an expression vector (e.g., pADV5 vector having a structure as shown in FIG. 4) subjected to the same enzymatic digestion treatment, and then were transformed into the double-knockout Escherichia coli strain. After verification, positive clones were picked out and inoculated and grown in media containing glyphosate. The growth statuses were observed.

[3] = 1X dose glyphosate (1,060 g/ha), day 10 after spraying
[4] = 2X dose glyphosate (2,120 g/ha) on survivors of 1X, after another 10 days
[5] = 5X dose glyphosate (5,300 g/ha) on survivors of 2X, after additional 10 days
[6] = 20X dose glyphosate (21,200 g/ha) on survivors of 5X, after further 10 days
[7] = medium containing 1 mM glyphosate
[8] = medium containing 2 mM glyphosate
[9] = medium containing 20 mM glyphosate

Row | Molecule | % ++&+++ (percentage of moderately and highly glyphosate resistant plants in total plants observed) [1, 3] [%] | plant number with resistance + (low glyphosate resistant) [1, 3] | plant number with resistance ++ (moderately glyphosate resistant) [1, 3] | plant number with resistance +++ (highly glyphosate resistant) [1, 3] | % ++&+++ (percentage of moderately and highly glyphosate resistant plants in total plants observed) [1, 4] [%] | plant number with resistance + (low glyphosate resistant) [1, 4] | plant number with resistance ++ (moderately glyphosate resistant) [1, 4] | plant number with resistance +++ (highly glyphosate resistant) [1, 4] | plant number with resistance − (non-glyphosate resistant, withered or dead) [1, 4] | % ++&+++ (percentage of moderately and highly glyphosate resistant plants in total plants observed) [1, 5] [%] | plant number with resistance + (low glyphosate resistant) [1, 5] | plant number with resistance ++ (moderately glyphosate resistant) [1, 5] | plant number with resistance +++ (highly glyphosate resistant) [1, 5] | plant number with resistance − (non-glyphosate resistant, withered or dead) [1, 5] | % ++&+++ (percentage of moderately and highly glyphosate resistant plants in total plants observed) [1, 6] [%] | plant number with resistance + (low glyphosate resistant) [1, 6] | plant number with resistance ++ (moderately glyphosate resistant) [1, 6] | plant number with resistance +++ (highly glyphosate resistant) [1, 6] | plant number with resistance − (non-glyphosate resistant, withered or dead) [1, 6] | glyphosate resistance of transformed rice seedlings (in words) [1] | further results
1 | B1 | 0.0 | 1 | 0 | 0 | 0.0 | 0 | 0 | 0 | 31 | 0.0 | 0 | 0 | 0 | 31 | 0.0 | 0 | 0 | 0 | 31 | all had no resistance | growth status of transformed Escherichia coli ([2]; medium containing 0 mM glyphosate): could grow; growth status of transformed Escherichia coli [2, 7]: could not grow; growth status of transformed Escherichia coli [2, 8]: could not grow; growth status of transformed Escherichia coli [2, 9]: could not grow
2 | B2 | 58.1 | 8 | 7 | 11 | 0.0 | 5 | 0 | 0 | 26 | 0.0 | 1 | 0 | 0 | 30 | 0.0 | 0 | 0 | 0 | 31 | significantly better glyphosate resistance than that of R0 | survival of transformed rice seedlings (in words) ([1]; 2× and 5× glyphosate doses): all of them survived; growth status of transformed Escherichia coli [2, 7]: showed bacterial plaques; growth status of transformed Escherichia coli [2, 8]: could not grow; growth status of transformed Escherichia coli [2, 9]: could not grow
